Experimental data reported in article PMC8092223.

Tests used:
[1] = target: His8-tagged PII protein, PII(WT) (Synechocystis sp. PCC 6803) (UniProt Q55247)
[2] = target: His8-tagged PII protein, PII(WT) (Synechocystis sp. PCC 6803) (UniProt Q55247); test: BLI; Octet K2; His8-tagged PII variant loaded (10 ug/ml) on Ni-NTA sensor tips, free sites blocked with 72 ug/ml PII(ΔT); analyte GST-PirA 125 to 12,000 nM (or tag-free PirA or GST alone); with ADP (0.1 to 2 mM; 2 mM for variants and controls); 30°C; 50 mM Tris-HCl pH 7.4, 150 mM KCl, 2 mM MgCl2, 0.02% lauryldimethylamine oxide, 0.2 mg/ml BSA; KD from concentration versus maximum response
[3] = target: PII(S49E), phosphomimetic variant, His8-tagged (Synechocystis sp. PCC 6803) (UniProt Q55247); test: as above

With “GST-tagged PirA (Ssr0692, PII-interacting regulator of arginine synthesis) (natural protein)” the NAGK activity (AGPR-coupled assay; 6 ug NAGK, 2.4 ug PII, 0.1 mM arginine, 1 mM ATP, 1 mM ADP) against PirA from 0 to 30 ug [1] was 50%, the Kd [2] was 2900 nM and the Kd [3] was 2500 nM.
